First the molecules themselves.
B1: EDIL3 (protein, UniProt O43854 24-480, looked up)
EGF-like repeat and discoidin …: DICDPNPCENGGICLPGLADGSFSCECPDGFTDPNCSSVVEVASDEEEPTSAGPCTPNPCHNGGTCEISEAYRGDTFIGYVCKCPRGFNGIHCQHNINECEVEPCKNGGICTDLVANYSCECPGEFMGRNCQYKCSGPLGIEGGIISNQQITASSTHRALFGLQKWYPYYARLNKKGLINAWTAAENDRWPWIQINLQRKMRVTGVITQGAKRIGSPEYIKSYKIAYSNDGKTWAMYKVKGTNEDMVFRGNIDNNTPYANSFTPPIKAQYVRLYPQVCRRHCTLRMELLGCELSGCSEPLGMKSGHIQDYQITASSIFRTLNMDMFTWEPRKARLDKQGKVNAWTSGHNDQSQWLQVDLLVPTKVTGIITQGAKDFGHVQFVGSYKLAYSNDGEHWTVYQDEKQRKDKVFQGNFDNDTHRKNVIDPPIYARHIRILPWSWYGRITLRSELLGCTEEE
B2: TRAF2 (protein, UniProt Q12933 2-501, looked up)
TNF receptor-associated …: AAASVTPPGSLELLQPGFSKTLLGTKLEAKYLCSACRNVLRRPFQAQCGHRYCSFCLASILSSGPQNCAACVHEGIYEEGISILESSSAFPDNAARREVESLPAVCPSDGCTWKGTLKEYESCHEGRCPLMLTECPACKGLVRLGEKERHLEHECPERSLSCRHCRAPCCGADVKAHHEVCPKFPLTCDGCGKKKIPREKFQDHVKTCGKCRVPCRFHAIGCLETVEGEKQQEHEVQWLREHLAMLLSSVLEAKPLLGDQSHAGSELLQRCESLEKKTATFENIVCVLNREVERVAMTAEACSRQHRLDQDKIEALSSKVQQLERSIGLKDLAMADLEQKVLEMEASTYDGVFIWKISDFARKRQEAVAGRIPAIFSPAFYTSRYGYKMCLRIYLNGDGTGRGTHLSLFFVVMKGPNDALLRWPFNQKVTLMLLDQNNREHVIDAFRPDVTSSSFQRPVNDMNIASGCPLFCPVSKMEAKNSYVRDDAIFIKAIVDLTGL
B3: CA12 (protein, UniProt O43570 25-354, looked up)
Carbonic anhydrase 12: APVNGSKWTYFGPDGENSWSKKYPSCGGLLQSPIDLHSDILQYDASLTPLEFQGYNLSANKQFLLTNNGHSVKLNLPSDMHIQGLQSRYSATQLHLHWGNPNDPHGSEHTVSGQHFAAELHIVHYNSDLYPDASTASNKSEGLAVLAVLIEMGSFNPSYDKIFSHLQHVKYKGQEAFVPGFNIEELLPERTAEYYRYRGSLTTPPCNPTVLWTVFRNPVQISQEQLLALETALYCTHMDDPSPREMINNFRQVQKFDERLVYTSFSQVQVCTAAGLSLGIILSLALAGILGICIVVVVSIWLFRRKSIKKGDNKGVIYKPATKMETEAHA
B4: DDC (protein, UniProt P20711 1-480, looked up)
Aromatic-L-amino-acid …: MNASEFRRRGKEMVDYMANYMEGIEGRQVYPDVEPGYLRPLIPAAAPQEPDTFEDIINDVEKIIMPGVTHWHSPYFFAYFPTASSYPAMLADMLCGAIGCIGFSWAASPACTELETVMMDWLGKMLELPKAFLNEKAGEGGGVIQGSASEATLVALLAARTKVIHRLQAASPELTQAAIMEKLVAYSSDQAHSSVERAGLIGGVKLKAIPSDGNFAMRASALQEALERDKAAGLIPFFMVATLGTTTCCSFDNLLEVGPICNKEDIWLHVDAAYAGSAFICPEFRHLLNGVEFADSFNFNPHKWLLVNFDCSAMWVKKRTDLTGAFRLDPTYLKHSHQDSGLITDYRHWQIPLGRRFRSLKMWFVFRMYGVKGLQAYIRKHVQLSHEFESLVRQDPRFEICVEVILGLVCFRLKGSNKVNEALLQRINSAKKIHLVPCHLRDKFVLRFAICSRTVESAHVQRAWEHIKELAADVLRAERE
B5: LAIR-2 (protein, UniProt Q6ISS4 22-152, looked up)
Leukocyte-associated …: QEGALPRPSISAEPGTVISPGSHVTFMCRGPVGVQTFRLEREDRAKYKDSYNVFRLGPSESEARFHIDSVSEGNAGLYRCLYYKPPGWSEHSDFLELLVKESSGGPDSPDTEPGSSAGTVPGTEASGFDAP
B6: SMAD1 (protein, UniProt Q15797 1-465, looked up)
Mothers against …: MNVTSLFSFTSPAVKRLLGWKQGDEEEKWAEKAVDALVKKLKKKKGAMEELEKALSCPGQPSNCVTIPRSLDGRLQVSHRKGLPHVIYCRVWRWPDLQSHHELKPLECCEFPFGSKQKEVCINPYHYKRVESPVLPPVLVPRHSEYNPQHSLLAQFRNLGQNEPHMPLNATFPDSFQQPNSHPFPHSPNSSYPNSPGSSSSTYPHSPTSSDPGSPFQMPADTPPPAYLPPEDPMTQDGSQPMDTNMMAPPLPSEINRGDVQAVAYEEPKHWCSIVYYELNNRVGEAFHASSTSVLVDGFTDPSNNKNRFCLGLLSNVNRNSTIENTRRHIGKGVHLYYVGGEVYAECLSDSSIFVQSRNCNYHHGFHPTTVCKIPSGCSLKIFNNQEFAQLLAQSVNHGFETVYELTKMCTIRMSFVKGWGAEYHRQDVTSTPCWIEIHLHGPLQWLDKVLTQMGSPHNPISSVS
B7: DDX58 (protein, UniProt O95786 1-925, looked up)
Antiviral innate immune …: MTTEQRRSLQAFQDYIRKTLDPTYILSYMAPWFREEEVQYIQAEKNNKGPMEAATLFLKFLLELQEEGWFRGFLDALDHAGYSGLYEAIESWDFKKIEKLEEYRLLLKRLQPEFKTRIIPTDIISDLSECLINQECEEILQICSTKGMMAGAEKLVECLLRSDKENWPKTLKLALEKERNKFSELWIVEKGIKDVETEDLEDKMETSDIQIFYQEDPECQNLSENSCPPSEVSDTNLYSPFKPRNYQLELALPAMKGKNTIICAPTGCGKTFVSLLICEHHLKKFPQGQKGKVVFFANQIPVYEQQKSVFSKYFERHGYRVTGISGATAENVPVEQIVENNDIIILTPQILVNNLKKGTIPSLSIFTLMIFDECHNTSKQHPYNMIMFNYLDQKLGGSSGPLPQVIGLTASVGVGDAKNTDEALDYICKLCASLDASVIATVKHNLEELEQVVYKPQKFFRKVESRISDKFKYIIAQLMRDTESLAKRICKDLENLSQIQNREFGTQKYEQWIVTVQKACMVFQMPDKDEESRICKALFLYTSHLRKYNDALIISEHARMKDALDYLKDFFSNVRAAGFDEIEQDLTQRFEEKLQELESVSRDPSNENPKLEDLCFILQEEYHLNPETITILFVKTRALVDALKNWIEGNPKLSFLKPGILTGRGKTNQNTGMTLPAQKCILDAFKASGDHNILIATSVADEGIDIAQCNLVILYEYVGNVIKMIQTRGRGRARGSKCFLLTSNAGVIEKEQINMYKEKMMNDSILRLQTWDEAVFREKILHIQTHEKFIRDSQEKPKPVPDKENKKLLCRKCKALACYTADVRVIEECHYTVLGDAFKECFVSRPHPKPKQFSSFEKRAKIFCARQNCSHDWGIHVKYKTFEIPVIKIESFVVEDIATGVQTLYSKWKDFHFEKIPFDPAEMSK
B8: ROBO2 (protein, UniProt Q9HCK4 22-1378, looked up)
Roundabout homolog 2: SRLRQEDFPPRIVEHPSDVIVSKGEPTTLNCKAEGRPTPTIEWYKDGERVETDKDDPRSHRMLLPSGSLFFLRIVHGRRSKPDEGSYVCVARNYLGEAVSRNASLEVALLRDDFRQNPTDVVVAAGEPAILECQPPRGHPEPTIYWKKDKVRIDDKEERISIRGGKLMISNTRKSDAGMYTCVGTNMVGERDSDPAELTVFERPTFLRRPINQVVLEEEAVEFRCQVQGDPQPTVRWKKDDADLPRGRYDIKDDYTLRIKKTMSTDEGTYMCIAENRVGKMEASATLTVRAPPQFVVRPRDQIVAQGRTVTFPCETKGNPQPAVFWQKEGSQNLLFPNQPQQPNSRCSVSPTGDLTITNIQRSDAGYYICQALTVAGSILAKAQLEVTDVLTDRPPPIILQGPANQTLAVDGTALLKCKATGDPLPVISWLKEGFTFPGRDPRATIQEQGTLQIKNLRISDTGTYTCVATSSSGETSWSAVLDVTESGATISKNYDLSDLPGPPSKPQVTDVTKNSVTLSWQPGTPGTLPASAYIIEAFSQSVSNSWQTVANHVKTTLYTVRGLRPNTIYLFMVRAINPQGLSDPSPMSDPVRTQDISPPAQGVDHRQVQKELGDVLVRLHNPVVLTPTTVQVTWTVDRQPQFIQGYRVMYRQTSGLQATSSWQNLDAKVPTERSAVLVNLKKGVTYEIKVRPYFNEFQGMDSESKTVRTTEEAPSAPPQSVTVLTVGSYNSTSISVSWDPPPPDHQNGIIQEYKIWCLGNETRFHINKTVDAAIRSVIIGGLFPGIQYRVEVAASTSAGVGVKSEPQPIIIGRRNEVVITENNNSITEQITDVVKQPAFIAGIGGACWVILMGFSIWLYWRRKKRKGLSNYAVTFQRGDGGLMSNGSRPGLLNAGDPSYPWLADSWPATSLPVNNSNSGPNEIGNFGRGDVLPPVPGQGDKTATMLSDGAIYSSIDFTTKTSYNSSSQITQATPYATTQILHSNSIHELAVDLPDPQWKSSIQQKTDLMGFGYSLPDQNKGNNGGKGGKKKKNKNSSKPQKNNGSTWANVPLPPPPVQPLPGTELEHYAVEQQENGYDSDSWCPPLPVQTYLHQGLEDELEEDDDRVPTPPVRGVASSPAISFGQQSTATLTPSPREEMQPMLQAHLDELTRAYQFDIAKQTWHIQSNNQPPQPPVPPLGYVSGALISDLETDVADDDADDEEEALEIPRPLRALDQTPGSSMDNLDSSVTGKAFTSSQRPRPTSPFSTDSNTSAALSQSQRPRPTKKHKGGRMDQQPALPHRREGMTDEEALVPYSKPSFPSPGGHSSSGTASSKGSTGPRKTEVLRAGHQRNASDLLDIGYMGSNSQGQFTGEL
B9: XPNPEP2 (protein, UniProt O43895 22-649, looked up)
Xaa-Pro aminopeptidase 2: HTKPVDLGGQDVRNCSTNPPYLPVTVVNTTMSLTALRQQMQTQNLSAYIIPGTDAHMNEYIGQHDERRAWITGFTGSAGTAVVTMKKAAVWTDSRYWTQAERQMDCNWELHKEVGTTPIVTWLLTEIPAGGRVGFDPFLLSIDTWESYDLALQGSNRQLVSITTNLVDLVWGSERPPVPNQPIYALQEAFTGSTWQEKVSGVRSQMQKHQKVPTAVLLSALEETAWLFNLRASDIPYNPFFYSYTLLTDSSIRLFANKSRFSSETLSYLNSSCTGPMCVQIEDYSQVRDSIQAYSLGDVRIWIGTSYTMYGIYEMIPKEKLVTDTYSPVMMTKAVKNSKEQALLKASHVRDAVAVIRYLVWLEKNVPKGTVDEFSGAEIVDKFRGEEQFSSGPSFETISASGLNAALAHYSPTKELNRKLSSDEMYLLDSGGQYWDGTTDITRTVHWGTPSAFQKEAYTRVLIGNIDLSRLIFPAATSGRMVEAFARRALWDAGLNYGHGTGHGIGNFLCVHEWPVGFQSNNIAMAKGMFTSIEPGYYKDGEFGIRLEDVALVVEAKTKYPGSYLTFEVVSFVPYDRNLIDVSLLSPEHLQYLNRYYQTIREKVGPELQRRQLLEEFEWLQQHTEPLA

The text below walks through data of US12099068B2, “Biomarkers for graft-versus-host disease” (Incyte Corporation, priority 2018, dated 2024).

This experiment deals with plasma proteins. As to the kind of experiment: Plasma proteins modulated between baseline and day 28 in responders (CR, VGPR, PR; n = 19), Example 6 (Table 13). Format: in vivo, human. The following applies: plasma protein (OLINK NPX); responders (CR, VGPR, PR; n = 19); itacitinib 200 mg or 300 mg QD with corticosteroids; day 28 vs baseline. In a few lines:
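Longitudinal comparison, day 28 versus baseline, with steroid-naive (N=10) and steroid-refractory (N=18) patients combined. Proteins measured by OLINK proximity extension, log2 normalized protein expression. Differences tested by t tests, ANOVA, Pearson correlation, P<0.05 significant.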
Take B1: the “Fold Change, Increased Expression from Baseline to Day 28” value (from here on “Fold Change, Increased Expression”) stood at 1.12.

In the case of B2, the “Fold Change, Decreased Expression from Baseline to Day 28” value (“Fold Change, Decreased Expression” below) was −1.4472. Consider B3, for which the “Fold Change, Increased Expression” value was 1.247. B4: the “Fold Change, Increased Expression” value amounted to 1.5485. As for B5, the “Fold Change, Decreased Expression” value was −1.8117. For the molecule B6, the “Fold Change, Decreased Expression” value is −1.3807. On to B7, for which the “Fold Change, Decreased Expression” value is listed as −1.6381. Turning to B8, the “Fold Change, Increased Expression” value amounted to 1.249. With B9, the “Fold Change, Increased Expression” value was found to be 1.285.
